According to patent publication US20230279079A1:

Experiments:
[1] = molecular target: spike glycoprotein of wild type SARS-CoV-2 virus (SARS-CoV-2) (UniProt P0DTC2); test: cell-based or functional assay
RBD-VLP (SARS-CoV-2) = RBD-VLP (SARS-CoV-2) (UniProt P0DTC2)

Substance	Neutralization by PRNT EC50 [1] [nM]	IC50 (RBD-VLP (SARS-CoV-2)) [nM]
CR3022 (antibody)	42	–
VHH72-Fc	–	2
